Test results published in ChEMBL document CHEMBL5244221, “Synthesis and structure-activity relationship studies of cruzain and rhodesain inhibitors” (Eur J Med Chem, 2018).

What was measured:
[1] = substrate: CCCC[C@@H](C(=O)Nc1ccc2c(C)c(CC(=O)O)c(=O)oc2c1)n1cc([C@@](C)(NCc2ccc(F)cc2)C(C)C)nn1; assay: (§1) Binding affinity to Trypanosoma cruzi Cruzain assessed as Kcat/Km
[2] = substrate: CCCC[C@@H](C(=O)Nc1ccc2c(C)c(CC(=O)O)c(=O)oc2c1)n1cc([C@@](C)(NCc2ccc3ncsc3c2)C(C)C)nn1; assay: as §1
[3] = substrate: CCCC[C@@H](C(=O)Nc1ccc2c(C)c(CC(=O)O)c(=O)oc2c1)n1cc([C@@](C)(NCc2ccc(OC)cc2)C(C)C)nn1; assay: as §1
[4] = substrate: CCCC[C@@H](C(=O)Nc1ccc2c(C)c(CC(=O)O)c(=O)oc2c1)n1cc([C@@](C)(NCc2ccccc2)C(C)C)nn1; assay: as §1
[5] = substrate: CCCC[C@@H](C(=O)Nc1ccc2c(C)c(CC(=O)O)c(=O)oc2c1)n1cc([C@@](C)(NCc2ccc3ncccc3c2)C(C)C)nn1; assay: as §1

B1: Cruzipain (Trypanosoma cruzi), P25779 (protein)
chain: MSGWARALLLAAVLVVMACLVPAATASLHAEETLTSQFAEFKQKHGRVYESAAEEAFRLSVFRENLFLARLHAAANPHATFGVTPFSDLTREEFRSRYHNGAAHFAAAQERARVPVKVEVVGAPAAVDWRARGAVTAVKDQGQCGSCWAFSAIGNVECQWFLAGHPLTNLSEQMLVSCDKTDSGCSGGLMNNAFEWIVQENNGAVYTEDSYPYASGEGISPPCTTSGHTVGATITGHVELPQDEAQIAAWLAVNGPVAVAVDASSWMTYTGGVMTSCVSEQLDHGVLLVGYNDSAAVPYWIIKNSWTTQWGEEGYIRIAKGSNQCLVKEEASSAVVGGPGPTPEPTTTTTTSAPGPSPSYFVQMSCTDAACIVGCENVTLPTGQCLLTTSGVSAIVTCGAETLTEEVFLTSTHCSGPSVRSSVPLNKCNRLLRGSVEFFCGSSSSGRLADVDRQRRHQPYHSRHRRL
B1 was tested, and the kcat/Km [1] was 4, the kcat/Km [2] was 19 and the kcat/Km [3] was 6.5. For the same protein, the kcat/Km [4] was 3.5 and the kcat/Km [5] was 19.
